Starred links: 1 amine or outer side, 2 acyl side, 3 side chain; linkers in the order of their positions; H or OH if unused. Non-standard residues stand in square brackets, D forms with d. Groups on a side chain read outwards from the residue. No end group written: not given here. *: point of attachment. Amino‑C3‑Gly(Bis) = branched linker 2-[bis(3-aminopropyl)amino]acetyl, two legs on the propylamino groups, O=C(CN(CCCN[*:1])CCCN[*:3])[*:2]; C20 diacid = O=C(O)CCCCCCCCCCCCCCCCCCC(=O)*; C18 diacid = O=C(O)CCCCCCCCCCCCCCCCC(=O)*; γGlu = O=C(O)[C@H](CCC(=O)[*:2])N[*:1]; Trx = NC[C@H]1CC[C@H](C(=O)O)CC1; AEEA = NCCOCCOCC(=O)O; Aib = CC(C)(N)C(=O)O
B1: N{Epsilon-35}-[2-[2-[2-[[2-[2-[2-[[2-[2-[2-[[2-[2-[2-[[2-[2-[2-[[2- … (peptide)
peptide: H[Aib]EGTFTSDVSSYLEEQAAREFIAWLVRK([AEEA-AEEA-AEEA-AEEA-AEEA-AEEA-Amino‑C3‑Gly(Bis)-code 2×γGlu-Trx-C20 diacid])RG
notes: X = Aib
B2: N{Epsilon-36}-[2-[2-[2-[[2-[2-[2-[[2-[2-[2-[[2-[2-[2-[[2-[bis[3-[[(45)-4-carboxy-4-(17-carboxyheptadecanoylamino)butanoyl]amino]propyl]amino]acetyl]amino]ethoxy … (peptide)
peptide: H[Aib]EGTFTSDVSSYLEEQAAREFIEWLVRGK([AEEA-AEEA-AEEA-AEEA-Amino‑C3‑Gly(Bis)-code 2×γGlu-C18 diacid])G
B3: N{Epsilon-37}-[2-[3-[[2-[2-[2-[[2-[2-[2-[[2-[2-[2-[[2-[2-[2-[[(2S)-2- … (peptide)
peptide: XXEGTFTSDVSSYLEEQAAREFIAWLVRGRK
modifications: not fully specified; Imp (imidazopropionic acid, deamino-histidine) at 7; Aib at 8; Lys37 epsilon-acylated with the branched side chain of the name (GLP-1(7-37) numbering, first residue = 7)
B4: N{Alpha}([Aib8,Glu22,Arg26,Arg34,Pro37]-GLP-1-(7-37)-peptidyl)-N{Epsilon}[2-[bis[3-[[2-[2-[2-[[2-[2-[2-[[2-[2-[2-[[2-[2-[2-[[2-[2-[2-[[2-[2-[2-[[(4S)-4-carboxy- … (peptide)
peptide: H[Aib]EGTFTSDVSSYLEEQAAREFIAWLVRGRPK([Amino‑C3‑Gly(Bis)-code 2×AEEA-AEEA-AEEA-AEEA-AEEA-AEEA-γGlu-Trx-C20 diacid])
notes: analogue (8Aib, 22E, 26R, 34R, 37P, 38K) GLP-1(7-37)
B5: N{Epsilon-36}-[2-[2-[2-[[2-[2-[2-[[2-[2-[2-[[2-[2-[2-[[2-[2-[2-[[2- … (peptide)
peptide: H[Aib]EGTFTSDVSSYLEEQAAREFIAWLVRGK([AEEA-AEEA-AEEA-AEEA-AEEA-AEEA-Amino‑C3‑Gly(Bis)-code 2×γGlu-Trx-C20 diacid])G
B6: N{Epsilon-36}-[2-[bis[3-[[2-[2-[2-[[2-[2-[2-[[2-[2-[2-[[2-[2-[2-[[(45)-4-carboxy-4-(17-carboxyheptadecanoylamino)butanoyl]amino]ethoxy]ethoxy]acetyl]amino]ethox … (peptide)
peptide: H[Aib]EGTFTSDVSSYLEEQAAREFIAWLVRGK([Amino‑C3‑Gly(Bis)-code 2×AEEA-AEEA-AEEA-AEEA-γGlu-C18 diacid])G

biological target: T1, human GLP-1 receptor (human, UniProt P43220 24-463); experiment: cell-based or functional assay

Row | Binder | EC50 (pM), in vitro potency, CRE luciferase reporter gene assay in BHK cells expressing the human GLP-1 receptor
1 | B1 | 9.5 pM
2 | B2 | 7.1 pM
3 | B3 | 12 pM
4 | B4 | 15 pM

biological target: T1, human GLP-1 receptor; experiment: competitive SPA, displacement of [125I]-GLP-1-(7-36)NH2 from BHK membranes with human GLP-1 receptor, high HSA (2.0%)
Description: (§1) 1. For the receptor binding assay in the presence of low HSA (0.005%) 50 μl of the assay buffer was added to each well of an assay plate. Assay continued with step 3. 2. For the receptor binding assay in the presence of high HSA (2%) 50 μl of the 8% albumin stock was added to each well of an assay plate. Assay continued with step 3. 3. […] 4. Cell membrane aliquots were thawed and diluted to their working concentration. Fifty μl were added to each well in the assay plate. 5. WGA SPA beads were suspended in assay buffer at 20 mg/ml. The suspension was diluted to 10 mg/ml in assay buffer just prior to addition to the assay plate. Fifty μl were added to each well in the assay plate. 6. […] A 25 μl aliquot was reserved for measuring total counts/well. 7. The assay plate was incubated for 2 h at 30° C. 8. The assay plate was centrifuged for 10 min. 9. The assay plate was read in a Packard TopCount NXT instrument.
(§2) The data from the TopCount instrument were transferred to GraphPad Prism software. Individual replicates were analysed using non-linear regression.

Row | Binder | IC50
5 | B1 | 7.2 nM
6 | B2 | 110 nM
7 | B3 | 45 nM
8 | B4 | 30 nM

biological target: T1, human GLP-1 receptor; experiment: competitive SPA, displacement of [125I]-GLP-1-(7-36)NH2 from BHK membranes with human GLP-1 receptor, low HSA (max. 0.001%)
Description: as §1, with “For the receptor binding assay in the presence of low HSA (0.005%) 50 μl of the assay buffer was added to each well of an assay plate.” left out
as §2

Row | Binder | IC50
9 | B1 | 0.33 nM
10 | B5 | 1.2 nM
11 | B6 | 0.68 nM
12 | B2 | 1.1 nM
13 | B3 | 0.13 nM
14 | B4 | 0.31 nM

Reference: patent publication US20170320927A1 (Novo Nordisk, published 2017)
